Our source for the protein stability index values is the supplement of paper PMC10567573.

B1: TRIM43 (parent)
chain: RAQMIRNEYRKLHPVLHKEEKQHL
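Further: lentivirally expressed fusions sorted by FACS into six bins by GFP to DsRed ratio, PSI derived from sequencing read proportions per bin multiplied by bin number.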

In the data set the parent is B1. Kind of data set: protein stability index of a GFP-peptide fusion (GPS, HEK-293T) (PSI 1-6); higher = more stable. Conditions: c terminus: a fixed tail appended.
In the case of RAQMIRNEYRKLHMVLHKEEKQHL [P14M], the protein stability index was 2.5.
RAQMIRNEYRKLHFVLHKEEKQHL [P14F]: the protein stability index amounted to 2.95.
Turning to RAQMIRNEYRKLHKVLHKEEKQHL [P14K], the protein stability index is 2.7.
For RAQMIRNEYRKLHLVLHKEEKQHL [P14L] the value was 3.51.
For RAQMIRNEYRKLHEVLHKEEKQHL [P14E] the value was 3.28.
In the case of RAQMIRNEYRKLHNVLHKEEKQHL [P14N] it was 2.64; in that of RAQMIRNEYRKLHIVLHKEEKQHL [P14I], 2.44; in that of RAQMIRNEYRKLHAVLHKEEKQHL [P14A], 2.53.
In the case of RAQMIRNEYRKLHYVLHKEEKQHL [P14Y], the protein stability index is 2.27.
In the case of RAQMIRNEYRKLHRVLHKEEKQHL [P14R] it was 3.23; in that of RAQMIRNEYRKLHGVLHKEEKQHL [P14G], 3.11; in that of RAQMIRNEYRKLHQVLHKEEKQHL [P14Q], 2.51.
In the case of RAQMIRNEYRKLHHVLHKEEKQHL [P14H] it was 2.28.
Turning to RAQMIRNEYRKLHTVLHKEEKQHL [P14T], the protein stability index came out at 2.77.
For RAQMIRNEYRKLHVVLHKEEKQHL [P14V] the value was 2.59; for RAQMIRNEYRKLHSVLHKEEKQHL [P14S], 2.04; for RAQMIRNEYRKLHDVLHKEEKQHL [P14D], 3.33.
In the case of RAQMIRNEYRKLHCVLHKEEKQHL [P14C] it was 2.42; in that of RAQMIRNEYRKLHWVLHKEEKQHL [P14W], 2.51.
In the case of RAQMIRNEYRKLHPVLKKEEKQHL [H17K] it was 4.15.
Regarding RAQMIRNEYRKLHPVLFKEEKQHL [H17F], the protein stability index amounted to 2.53.
RAQMIRNEYRKLHPVLCKEEKQHL [H17C]: the protein stability index is 2.58.
In the case of RAQMIRNEYRKLHPVLEKEEKQHL [H17E] it was 4.14; in that of RAQMIRNEYRKLHPVLDKEEKQHL [H17D], 3.5; in that of RAQMIRNEYRKLHPVLIKEEKQHL [H17I], 2.8.
For RAQMIRNEYRKLHPVLAKEEKQHL [H17A] the value was 2.37; for RAQMIRNEYRKLHPVLGKEEKQHL [H17G], 3.56; for RAQMIRNEYRKLAPVLHKEEKQHL [H13A], 3.46.
For RAQMIRNEYRKLDPVLHKEEKQHL [H13D] the value was 3.75; for RAQMIRNEYRKLRPVLHKEEKQHL [H13R], 2.69.
As for RAQMIRNEYRKLKPVLHKEEKQHL [H13K], the protein stability index amounted to 3.55.
In the case of RAQMIRNEYRKLFPVLHKEEKQHL [H13F] it was 2.82.
In the case of RAQMIRNEYRKLEPVLHKEEKQHL [H13E] it was 4.06; in that of RAQMIRNEYRKLVPVLHKEEKQHL [H13V], 3.11; in that of RAQMIRNEYRKLSPVLHKEEKQHL [H13S], 3.4.
In the case of RAQMIRNEYRKLPPVLHKEEKQHL [H13P] it was 3.19.
Consider RAQMIRNEYRKLLPVLHKEEKQHL [H13L], for which the protein stability index was 3.28.
For RAQMIRNEYRKLIPVLHKEEKQHL [H13I] the value was 2.92; for RAQMIRNEYRKLTPVLHKEEKQHL [H13T], 3.1.
As to RAQMIRNEYRKLCPVLHKEEKQHL [H13C], the protein stability index was determined as 3.
In the case of RAQMIRNEYRKLMPVLHKEEKQHL [H13M] it was 2.94; in that of RAQMIRNEYRKLQPVLHKEEKQHL [H13Q], 3.56; in that of RAQMIRNEYRKLYPVLHKEEKQHL [H13Y], 2.83.
Regarding RAQMIRNEYRKLWPVLHKEEKQHL [H13W], the protein stability index is 2.61.
For the variant RAQMIRNEYRKLGPVLHKEEKQHL [H13G], the protein stability index is 3.2.
In the case of RAQMIRNEYRKLNPVLHKEEKQHL [H13N] it was 3.35.
In the case of RAQMIRNEYRKSHPVLHKEEKQHL [L12S] it was 4.43; in that of RAQMIRNEYRKVHPVLHKEEKQHL [L12V], 2.97; in that of RAQMIRNEYRKPHPVLHKEEKQHL [L12P], 3.96.
Regarding RAQMIRNEYRKNHPVLHKEEKQHL [L12N], the protein stability index was 4.16.
Consider RAQMIRNEYRKQHPVLHKEEKQHL [L12Q], for which the protein stability index came out at 3.36.
As for RAQMIRNEYRKMHPVLHKEEKQHL [L12M], the protein stability index is 2.86.
In the case of RAQMIRNEYRKYHPVLHKEEKQHL [L12Y] it was 3.75; in that of RAQMIRNEYRKWHPVLHKEEKQHL [L12W], 2.96; in that of RAQMIRNEYRKRHPVLHKEEKQHL [L12R], 3.94.
For RAQMIRNEYRKTHPVLHKEEKQHL [L12T] the value was 3.85.
In the case of RAQMIRNEYRKKHPVLHKEEKQHL [L12K] it was 3.7; in that of RAQMIRNEYRKLHPVTHKEEKQHL [L16T], 3.57.
RAQMIRNEYRKLHPVPHKEEKQHL [L16P]: the protein stability index amounted to 3.92.
For RAQMIRNEYRKLHPVDHKEEKQHL [L16D] the value was 4.12; for RAQMIRNEYRKLHPVCHKEEKQHL [L16C], 2.71.
For RAQMIRNEYRKLHPVVHKEEKQHL [L16V] the value was 4.07.
Take RAQMIRNEYRKLHPVWHKEEKQHL [L16W]: the protein stability index is 2.3.
For RAQMIRNEYRKLHPVRHKEEKQHL [L16R] the value was 3.84; for RAQMIRNEYRKLHPVAHKEEKQHL [L16A], 3.52.
Regarding RAQMIRNEYRKLHPVMHKEEKQHL [L16M], the protein stability index was determined as 3.94.
In the case of RAQMIRNEYRKLHPVGHKEEKQHL [L16G] it was 3.1; in that of RAQMIRNEYRKLHPVQHKEEKQHL [L16Q], 3.85.
On to RAQMIRNEYRKLHPVNHKEEKQHL [L16N], for which the protein stability index came to 3.95.
For RAQMIRNEYRKLHPVSHKEEKQHL [L16S] the value was 3.65; for RAQMIRNEYRKLHPVYHKEEKQHL [L16Y], 2.52; for RAQMIRNEYRKLHPVHHKEEKQHL [L16H], 3.2.
Take RAQMIRNEYRKLHPVFHKEEKQHL [L16F]: the protein stability index was 3.04.
On to RAQMIRNEYRKLHPVKHKEEKQHL [L16K], for which the protein stability index amounted to 3.85.
For RAQMIRNEYRKLHPVIHKEEKQHL [L16I] the value was 3.31.
For RAQMIRNEYRKLHPVEHKEEKQHL [L16E] the value was 4.04; for RAQMIRNEYRKLHPHLHKEEKQHL [V15H], 2.98.
As for RAQMIRNEYRKLHPSLHKEEKQHL [V15S], the protein stability index turned out to be 2.94.
For RAQMIRNEYRKLHPLLHKEEKQHL [V15L] the value was 2.63; for RAQMIRNEYRKLHPQLHKEEKQHL [V15Q], 3.17.
In the case of RAQMIRNEYRKLHPPLHKEEKQHL [V15P] it was 3.32; in that of RAQMIRNEYRKLHPRLHKEEKQHL [V15R], 3.37.
In the case of RAQMIRNEYRKLHPELHKEEKQHL [V15E] it was 3.5.
Take RAQMIRNEYRKLHPGLHKEEKQHL [V15G]: the protein stability index was found to be 3.88.
In the case of RAQMIRNEYRKLHPWLHKEEKQHL [V15W] it was 2.5; in that of RAQMIRNEYRKLHPCLHKEEKQHL [V15C], 3.
Turning to RAQMIRNEYRKLHPDLHKEEKQHL [V15D], the protein stability index was determined as 3.64.
For RAQMIRNEYRKLHPTLHKEEKQHL [V15T] the value was 3.13.
For RAQMIRNEYRKLHPMLHKEEKQHL [V15M] the value was 3.67; for RAQMIRNEYRKLHPNLHKEEKQHL [V15N], 3.65.
In the case of RAQMIRNEYRKLHPKLHKEEKQHL [V15K] it was 3.29.
For RAQMIRNEYRKLHPALHKEEKQHL [V15A], the protein stability index was 3.39.
In the case of RAQMIRNEYRKLHPYLHKEEKQHL [V15Y] it was 2.7.
In the case of RAQMIRNEYRKLHPILHKEEKQHL [V15I] it was 3.09.
